Reference: patent publication US20230149544A1 (ALTRUBIO, published 2023)

Target: T1, human PSGL-1 (human, UniProt Q14242 42-412)
T1 sequence: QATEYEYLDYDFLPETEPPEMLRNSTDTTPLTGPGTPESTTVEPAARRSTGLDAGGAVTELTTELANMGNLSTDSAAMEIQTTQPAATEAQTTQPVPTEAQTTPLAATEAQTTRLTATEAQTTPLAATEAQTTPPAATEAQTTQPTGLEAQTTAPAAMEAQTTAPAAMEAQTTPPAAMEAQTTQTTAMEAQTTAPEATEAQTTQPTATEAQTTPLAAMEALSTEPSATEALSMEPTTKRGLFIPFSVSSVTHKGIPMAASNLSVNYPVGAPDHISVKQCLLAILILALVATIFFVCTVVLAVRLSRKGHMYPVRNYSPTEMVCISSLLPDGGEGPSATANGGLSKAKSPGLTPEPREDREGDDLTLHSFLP
Assay: cell-based or functional assay

EC50 15A7H, single treatment; apoptosis of activated T cells (Annexin V/PI, 48 h, with cross-linker), donor N084, ratio block 1.1:1: 0.328 µg/mL | EC50 15A7H, single treatment; apoptosis of activated T cells (Annexin V/PI, 48 h, with cross-linker), donor N084, ratio block 3.3:1: 0.328 µg/mL | EC50 15A7H, single treatment; apoptosis of activated T cells (Annexin V/PI, 48 h, with cross-linker), donor N089, ratio block 1.1:1: 0.816 µg/mL | EC50 15A7H, single treatment; apoptosis of activated T cells (Annexin V/PI, 48 h, with cross-linker), donor N089, ratio block 3.3:1: 0.865 µg/mL | EC50 15A7H, single treatment; apoptosis of activated T cells (Annexin V/PI, 48 h, with cross-linker), donor N102, ratio block 0.37:1: 0.959 µg/mL | EC50 15A7H, single treatment; apoptosis of activated T cells (Annexin V/PI, 48 h, with cross-linker), donor N102, ratio block 1.1:1: 0.959 µg/mL | EC50 15A7H, single treatment; apoptosis of activated T cells (Annexin V/PI, 48 h, with cross-linker), donor N102, ratio block 3.3:1: 0.959 µg/mL | EC50 15A7H, single treatment; apoptosis of activated T cells (Annexin V/PI, 48 h, with cross-linker), donor N103, ratio block 0.37:1: 1.4 µg/mL | EC50 15A7H, single treatment; apoptosis of activated T cells (Annexin V/PI, 48 h, with cross-linker), donor N103, ratio block 1.1:1: 1.4 µg/mL | EC50 15A7H, single treatment; apoptosis of activated T cells (Annexin V/PI, 48 h, with cross-linker), donor N103, ratio block 3.3:1: 1.4 µg/mL
B1: anti-PSGL-1 antibody 15A7H (antibody, human IgG4 S228P, kappa, V domains shown)
VH: EVQLVESGGGLVQPGGSLRLSCAASGFTFSSFGMHWVRQAPGKGLEWVAYINGGSSTIFYANAVKGRFTISRDNAKNTLYLQMNSLRAEDTAVYYCARYASYGGGAMDYWGQGTLVTVSS
VL: DIQMTQSPSSLSASVGDRVTITCRSSQSIVHNDGNTYFEWYQQKPGKAPKLLIYKVSNRFSGVPSRFSGSGSGTHFTLTISSLQPEDFATYYCFQGSYVPLTFGQGTKVEIKR
